{"source": "patent US20080032921A1", "key": {"HLA-DR DRB1*0404 (human) [1]": {"target": "HLA-DR DRB1*0404 (human)", "assay": "competition with 125I-labelled peptide for purified HLA-DR"}, "HLA-DR DRB1*0401 (human) [2]": {"target": "HLA-DR DRB1*0401 (human)", "assay": "competition with 125I-labelled peptide for purified HLA-DR"}, "HLA-DR DRB1*0101 (human) [3]": {"target": "HLA-DR DRB1*0101 (human)", "assay": "competition with 125I-labelled peptide for purified HLA-DR"}, "HLA-DR DRB1*1302 (human) [4]": {"target": "HLA-DR DRB1*1302 (human)", "assay": "competition with 125I-labelled peptide for purified HLA-DR"}, "HLA-DR DRB5*0101 (human) [5]": {"target": "HLA-DR DRB5*0101 (human)", "assay": "competition with 125I-labelled peptide for purified HLA-DR"}, "HLA-DR DRB1*0701 (human) [6]": {"target": "HLA-DR DRB1*0701 (human)", "assay": "competition with 125I-labelled peptide for purified HLA-DR"}, "HLA-DR DRB1*0901 (human)": {"target": "HLA-DR DRB1*0901 (human)", "assay": "competition with 125I-labelled peptide for purified HLA-DR"}, "HLA-DR DRB1*0405 (human) [7]": {"target": "HLA-DR DRB1*0405 (human)", "assay": "competition with 125I-labelled peptide for purified HLA-DR"}, "HLA-DR DRB1*1101 (human) [8]": {"target": "HLA-DR DRB1*1101 (human)", "assay": "competition with 125I-labelled peptide for purified HLA-DR"}, "HLA-DR DRB1*0301 (human) [9]": {"target": "HLA-DR DRB1*0301 (human)", "assay": "competition with 125I-labelled peptide for purified HLA-DR"}, "HLA-DR DRB4*0101 (human) [10]": {"target": "HLA-DR DRB4*0101 (human)", "assay": "competition with 125I-labelled peptide for purified HLA-DR"}, "HLA-DR DRB1*1501 (human) [11]": {"target": "HLA-DR DRB1*1501 (human)", "assay": "competition with 125I-labelled peptide for purified HLA-DR"}, "HLA-DR DRB1*0802 (human) [12]": {"target": "HLA-DR DRB1*0802 (human)", "assay": "competition with 125I-labelled peptide for purified HLA-DR"}, "HLA-DR DRB1*0404 (human) [13]": {"target": "HLA-DR DRB1*0404 (human)", "assay": "competition with 125I-labeled reference peptide, purified HLA"}, "HLA-DR DRB1*0401 (human) [14]": {"target": "HLA-DR DRB1*0401 (human)", "assay": "competition with 125I-labeled reference peptide, purified HLA"}, "HLA-DR DRB1*0101 (human) [15]": {"target": "HLA-DR DRB1*0101 (human)", "assay": "competition with 125I-labeled reference peptide, purified HLA"}, "HLA-DR DRB1*1302 (human) [16]": {"target": "HLA-DR DRB1*1302 (human)", "assay": "competition with 125I-labeled reference peptide, purified HLA"}, "HLA-DR DRB5*0101 (human) [17]": {"target": "HLA-DR DRB5*0101 (human)", "assay": "competition with 125I-labeled reference peptide, purified HLA"}, "HLA-DR DRB1*0701 (human) [18]": {"target": "HLA-DR DRB1*0701 (human)", "assay": "competition with 125I-labeled reference peptide, purified HLA"}, "HLA-DR DRB1*0405 (human) [19]": {"target": "HLA-DR DRB1*0405 (human)", "assay": "competition with 125I-labeled reference peptide, purified HLA"}, "HLA-DR DRB1*1101 (human) [20]": {"target": "HLA-DR DRB1*1101 (human)", "assay": "competition with 125I-labeled reference peptide, purified HLA"}, "HLA-DR DRB1*0301 (human) [21]": {"target": "HLA-DR DRB1*0301 (human)", "assay": "competition with 125I-labeled reference peptide, purified HLA"}, "HLA-DR DRB4*0101 (human) [22]": {"target": "HLA-DR DRB4*0101 (human)", "assay": "competition with 125I-labeled reference peptide, purified HLA"}, "HLA-DR DRB1*1501 (human) [23]": {"target": "HLA-DR DRB1*1501 (human)", "assay": "competition with 125I-labeled reference peptide, purified HLA"}, "HLA-DR DRB1*0802 (human) [24]": {"target": "HLA-DR DRB1*0802 (human)", "assay": "competition with 125I-labeled reference peptide, purified HLA"}, "[25]": {"target": "purified HLA DRB1*0101 (human)", "assay": "competition with 125I-labelled reference peptide, purified HLA"}, "[26]": {"target": "purified HLA DRB1*0701 (human)", "assay": "competition with 125I-labelled reference peptide, purified HLA"}, "[27]": {"target": "purified HLA DRB4*0101 (human)", "assay": "competition with 125I-labelled reference peptide, purified HLA"}, "[28]": {"target": "purified HLA DRB1*1501 (human)", "assay": "competition with 125I-labelled reference peptide, purified HLA"}, "[29]": {"target": "purified HLA DRB5*0101 (human)", "assay": "competition with 125I-labelled reference peptide, purified HLA"}, "[30]": {"target": "purified HLA DRB1*0401 (human)", "assay": "competition with 125I-labelled reference peptide, purified HLA"}, "[31]": {"target": "purified HLA DRB1*0404 (human)", "assay": "competition with 125I-labelled reference peptide, purified HLA"}, "[32]": {"target": "purified HLA DRB1*1302 (human)", "assay": "competition with 125I-labelled reference peptide, purified HLA"}, "[33]": {"target": "purified HLA DRB1*0301 (human)", "assay": "competition with 125I-labelled reference peptide, purified HLA"}, "[34]": {"target": "purified HLA DRB1*1101 (human)", "assay": "competition with 125I-labelled reference peptide, purified HLA"}, "[35]": {"target": "purified HLA DRB1*0405 (human)", "assay": "competition with 125I-labelled reference peptide, purified HLA"}}, "data": [{"binder": "RREVHIYYLEKANKI (modifications not checked)", "note": "[Flu.PA.127]", "values": [{"measurement": "IC50", "setting": "HLA-DR DRB1*0404 (human) [1]", "value": 181, "unit": "nM"}, {"measurement": "IC50", "setting": "HLA-DR DRB1*0401 (human) [2]", "value": 63, "unit": "nM"}, {"measurement": "IC50", "setting": "HLA-DR DRB1*0101 (human) [3]", "value": 34, "unit": "nM"}, {"measurement": "IC50", "setting": "HLA-DR DRB1*1302 (human) [4]", "value": 150, "unit": "nM"}, {"measurement": "IC50", "setting": "HLA-DR DRB5*0101 (human) [5]", "value": 25, "unit": "nM"}, {"measurement": "IC50", "setting": "HLA-DR DRB1*0701 (human) [6]", "value": 23, "unit": "nM"}, {"measurement": "IC50", "setting": "HLA-DR DRB1*0901 (human)", "value": 851, "unit": "nM"}, {"measurement": "IC50", "setting": "HLA-DR DRB1*0405 (human) [7]", "value": 1490, "unit": "nM"}, {"measurement": "IC50", "setting": "HLA-DR DRB1*1101 (human) [8]", "value": 96, "unit": "nM"}, {"measurement": "IC50", "setting": "HLA-DR DRB1*0301 (human) [9]", "value": "> 10000", "unit": "nM"}, {"measurement": "IC50", "setting": "HLA-DR DRB4*0101 (human) [10]", "value": 5, "unit": "nM"}, {"measurement": "IC50", "setting": "HLA-DR DRB1*1501 (human) [11]", "value": 4.5, "unit": "nM"}, {"measurement": "IC50", "setting": "HLA-DR DRB1*0802 (human) [12]", "value": 95, "unit": "nM"}, {"measurement": "IC50", "setting": "HLA-DR DRB1*0404 (human) [13]", "value": 181, "unit": "nM"}, {"measurement": "IC50", "setting": "HLA-DR DRB1*0401 (human) [14]", "value": 63, "unit": "nM"}, {"measurement": "IC50", "setting": "HLA-DR DRB1*0101 (human) [15]", "value": 34, "unit": "nM"}, {"measurement": "IC50", "setting": "HLA-DR DRB1*1302 (human) [16]", "value": 150, "unit": "nM"}, {"measurement": "IC50", "setting": "HLA-DR DRB5*0101 (human) [17]", "value": 25, "unit": "nM"}, {"measurement": "IC50", "setting": "HLA-DR DRB1*0701 (human) [18]", "value": 23, "unit": "nM"}, {"measurement": "IC50", "setting": "HLA-DR DRB1*0405 (human) [19]", "value": 1490, "unit": "nM"}, {"measurement": "IC50", "setting": "HLA-DR DRB1*1101 (human) [20]", "value": 96, "unit": "nM"}, {"measurement": "IC50", "setting": "HLA-DR DRB1*0301 (human) [21]", "value": "> 10000", "unit": "nM"}, {"measurement": "IC50", "setting": "HLA-DR DRB4*0101 (human) [22]", "value": 5, "unit": "nM"}, {"measurement": "IC50", "setting": "HLA-DR DRB1*1501 (human) [23]", "value": 4.5, "unit": "nM"}, {"measurement": "IC50", "setting": "HLA-DR DRB1*0802 (human) [24]", "value": 95, "unit": "nM"}]}, {"binder": "AKSMEYDAVATTHSW (modifications not checked)", "note": "[Flu.PB1.655]", "values": [{"measurement": "IC50", "setting": "[25]", "value": 202, "unit": "nM"}, {"measurement": "IC50", "setting": "[26]", "value": 292, "unit": "nM"}, {"measurement": "IC50", "setting": "[27]", "value": 6340, "unit": "nM"}, {"measurement": "IC50", "setting": "[28]", "value": 1990, "unit": "nM"}, {"measurement": "IC50", "setting": "[29]", "value": 3530, "unit": "nM"}, {"measurement": "IC50", "setting": "[30]", "value": 53, "unit": "nM"}, {"measurement": "IC50", "setting": "[31]", "value": 646, "unit": "nM"}, {"measurement": "IC50", "setting": "[32]", "value": 2180, "unit": "nM"}, {"measurement": "IC50", "setting": "[33]", "value": 909, "unit": "nM"}, {"measurement": "IC50", "setting": "[34]", "value": 6620, "unit": "nM"}, {"measurement": "IC50", "setting": "[35]", "value": 626, "unit": "nM"}]}]}
